From patent US20110250613A1, “Arrayed Multiple Ubiquitin Binding Domains as Linkage-specific Polyubiquitin Affinity Reagents” (THE JOHNS HOPKINS UNIVERSITY, priority 2009, published 2011)
Where a chain is given by its changes, count along the chain named. Names may count otherwise.

B1: Rap80 7A linker: Rap80 UIMs linked by 7 alanine residues (protein)
peptide: PSSHHHHHHSSGLVPRGSHMTEEEQFALALKMSEQEAAAAAAAAEEEEELLRKAIAESLNSCRPS
B2: Rap80 DLKAAIQ: Rap80 tUIM peptide, linker DLKAAIQ (protein)
peptide: B1 peptide with A38D, A39L, A40K, A43I, A44Q
B3: Rap80 ARLEEKV: Rap80 tUIM peptide, linker ARLEEKV (protein)
peptide: B1 peptide with A39R, A40L, A41E, A42E, A43K, A44V
B4: Rap80 S101A: Rap80 tUIM peptide, linker REVNAQE (protein)
peptide: B1 peptide with A38R, A39E, A40V, A41N, A43Q, A44E
B5: unlabeled Rap80 tUIM peptide: unlabeled version of the fluorescent Rap80 tUIM peptide (protein)
peptide: B1 peptide with A38R, A39E, A40V, A41N, A42S, A43Q, A44E
B6: Rap80 S101E: Rap80 tUIM peptide, linker REVNEQE (protein)
peptide: B1 peptide with A38R, A39E, A40V, A41N, A42E, A43Q, A44E
B7: Vps27 (WT): yeast Vps27 tandem UIM peptide with unstructured 25-residue linker (protein)
peptide: PSSHHHHHHSSGLVPRGSHMDRDYSTPEDEEELIRKAIELSLKESRNSASSEPIVPVVESKNEVKRQEIEEEEDPDLKAAIQESLREAEEAKLRSERQKAC
B8: ataxin-3 Rap80 linker: ataxin-3 UIMs spliced together with the Rap80 linker REVNSQE (protein)
peptide: PSSHHHHHHSSGLVPRGSHMDEDEEDLQRALALSRQEIREVNSQEEDEEADLRRAIQLSMQGSSRNC
B9: ataxin-3 7A linker: ataxin-3 UIMs joined by a 7-alanine linker (protein)
peptide: B8 peptide with R39A, E40A, V41A, N42A, S43A, Q44A, E45A
B10: Vps27 7aa linker: Vps27 UIMs connected with 7-residue linker RAEEKVK (protein)
peptide: PSSHHHHHHSSGLVPRGSHMEEEEDPDLKAAIQESLREARAEEKVKEDEEELIRKAIELSLKESRNCA
B11: Rap80 2 x linker: Rap80 tUIM peptide with 14-residue linker REVNSQEREVNSQE (protein)
peptide: PSSHHHHHHSSGLVPRGSHMTEEEQFALALKMSEQEAREVNSQEREVNSQEEEEEELLRKAIAESLNSCRPS
B12: Rap80 (WT): His6-tagged human Rap80 tandem UIM peptide, linker REVNSQE, fluorescein-labeled on C121; sequence in Table 1 (protein)
peptide: PSSHHHHHHSSGLVPRGSHMTEEEQFALALKMSEQEAREVNSQEEEEEELLRKAIAESLNSC(fluorescein)RPS
B13: Rap80 6aa linker: Rap80 tUIM peptide with 6-residue linker REVAAE (protein)
peptide: PSSHHHHHHSSGLVPRGSHMTEEEQFALALKMSEQEAREVAAEEEEEELLRKAIAESLNSCRPS
B14: Rap80 (residues 1-233): N-terminal 233 residues of Rap80, fluorescently labeled on the same UIM cysteine (protein)
chain: MPRRKKKVKEVSESRNLEKKDVETTSSVSVKRKRRLEDAFIVISDSDGEEPKEENGLQKTKTKQSNRAKSLAKRKIAQMTEEEQFALALKMSEQEAREVNSQEEEEEELLRKAIAESLNSCRPSDASATRSRPLATGPSSQSHQEKTTDSGLTEGIWQLVPPSLFKGSHISQGNEAEEREEPWDHTEKTEEEPVSGSSGSWDQSSQPVFENVNVKSFDRSTGHSAEHTQSGKP

Assays:
[1] = target: T1, K63-Ub2 (Homo sapiens, UniProt P0CG47, K63R); assay: Fluorescence anisotropy binding of fluorescent tUIM peptides to K63-Ub2; settings: for Kd: fluorescence anisotropy, single-site fit, 25° C., pH 7.4
T1 construct: Ub and K48- and K63-linked diUb and tetraUb were made as described; made in house
Description: (§1) Fluorescent Labeling. Rap80 tUIM peptides were fluorescently-labeled on the sulfhydryl group of C121 (see FIG. 1). For longer Rap80 constructs, all cysteines except C121 were mutated to serine for site-specific labeling. Ataxin-3 and Vps27 UIM peptides were labeled on a single cysteine introduced at the C-terminus. Fluorescein-5-maleimide (Pierce) was coupled to cysteines following the manufacturer's instructions. After desalting through Sephadex G-25 resin, fluorescein-labeled tUIM peptides were separated from unlabeled peptides by anion-exchange chromatography (MonoQ column, GE Biosciences) by elution with a NaCl gradient in 50 mM Tris buffer, pH 7.9. The labeled peptides were essentially 100% pure by SDS-PAGE and Coomassie blue staining, and MALDI-TOF mass spectrometry confirmed the addition of a single fluorescein moiety. Fluorescence Anisotropy Binding Assays. Fluorescence anisotropy measurements were made using a Fluoromax 4 fluorometer in L format, thermostatted at 25° C. Excitation and emission monochromators were set at 492 nm and 520 nm, respectively. Slit widths were 3 nm for diUb-binding assays ([…]) or 6 nm for tetraUb-binding assays ([…]). Anisotropies were calculated by the instrument software, and the overall intensity of the fluorescence signal was monitored at each point with the polarizers oriented at the magic angle. All measurements were made in fluorescence buffer (25 mM Na phosphate [pH 7.4], 150 mM NaCl, 5 mM β-mercaptoethanol, 1 mM EDTA, and either 0.005% surfactant P20 (BIACORE) or 0.05% Brij35). Concentrations of the fluorescent proteins were calculated using the fluorescein extinction coefficient at 494 nm, 68000 M^-1 cm^-1. (poly)Ub concentrations were assessed by absorbance at 280 nm using the extinction coefficient 0.16 (mg/ml)^-1 cm^-1 ([…] and Raasi, 2005). Fluorescence anisotropy data were fit with a single-site binding model as described (Wilkinson, 2004). The equilibrium constants for wild-type Vps27 peptide binding to K63 and K48 Ub4 were determined by competition with the fluorescent Vps27 7aa linker peptide as described (Wilkinson, 2004).

[2] = target: T2, K48-Ub2 (Homo sapiens, UniProt P0CG47, K48R); assay: Fluorescence anisotropy binding of fluorescent tUIM peptides to K48-Ub2; settings: single-site fit, 25° C., pH 7.4
T2 construct: Ub and K48- and K63-linked diUb and tetraUb were made as described; made in house
Procedure: Fluorescence Anisotropy Binding Assays. Fluorescence anisotropy measurements were made using a Fluoromax 4 fluorometer in L format, thermostatted at 25° C. Excitation and emission monochromators were set at 492 nm and 520 nm, respectively. Slit widths were 3 nm for diUb-binding assays (1 mM fluorophore) or 6 nm for tetraUb-binding assays (0.1 mM fluorophore). Anisotropies were calculated by the instrument software, and the overall intensity of the fluorescence signal was monitored at each point with the polarizers oriented at the magic angle. All measurements were made in fluorescence buffer (25 mM Na phosphate [pH 7.4], 150 mM NaCl, 5 mM β-mercaptoethanol, 1 mM EDTA, and either 0.005% surfactant P20 (BIACORE) or 0.05% Brij35). Concentrations of the fluorescent proteins were calculated using the fluorescein extinction coefficient at 494 nm, 68000 M^-1 cm^-1. (poly)Ub concentrations were assessed by absorbance at 280 nm using the extinction coefficient 0.16 (mg/ml)^-1 cm^-1 ([…] and Raasi, 2005). Fluorescence anisotropy data were fit with a single-site binding model as described (Wilkinson, 2004).

[3] = test system: K63-Ub4; assay: Fluorescence anisotropy binding of fluorescent tUIM peptides to K63-Ub4
Description: as §1

[4] = target: T3, K63-Ub4 (Homo sapiens, UniProt P0CG47, K63R); assay: as above
T3 construct: Ub and K48- and K63-linked diUb and tetraUb were made as described; made in house
Description: as §1

[5] = target: K48-Ub4; assay: Fluorescence anisotropy binding of fluorescent tUIM peptides to K48-Ub4
Description: as §1

[6] = test system: K63-Ub2; assay: Fluorescence anisotropy binding of fluorescent tUIM peptides to K63-Ub2
Description: as §1

[7] = CD measurements of helical content of tUIM peptides; type: physicochemical; settings: whole-spectrum interpretation of CD; peptide without vector-derived residues
Procedure: Measurements of 3 samples were collected and are shown in FIG. 2D: (1) 153 μM Rap80 tUIM alone, (2) 153 μM K63-Ub2 alone, and (3) a mixture of 153 μM Rap80 tUIM with 153 μM K63-Ub2. The contribution of Rap80 tUIM to spectrum (3) was sought, so that the helical content of the bound tUIM could be estimated. […] Therefore, the difference between spectrum (3) and spectrum (2) will give the contribution from Rap80 tUIM to the total CD spectrum of the Rap80-K63-Ub2 mixture. (A) The spectrum of unbound Rap80 [spectrum (1)] is shown here as triangles. The contribution of Rap80 to spectrum (3) was calculated as (3)−(2), and is shown here as squares. Because the mixture of Rap80 with K63-Ub2 is not at saturating concentrations, bound and unbound Rap80 are both present in the solution. The observed helical fraction (Hmix) for this complex mixture can be described by:
Where Fbound and Funbound are the fractions of the bound and unbound forms of Rap80 present in the mixture, respectively, and Hbound and Hunbound are the helical contents of the bound and unbound forms of Rap80, respectively. […] (B) Shown here is a summary of the secondary structure predictions from two methods and the corresponding Hbound values calculated as described above. […]
CD Measurements. […] Peptide concentrations were independently determined before each CD reading from absorbance measurements (fluorescein) of samples in the CD cuvette.

[8] = determined by competition with the fluorescent Vps27 7aa linker peptide
[9] = fluorescence anisotropy, single-site fit, 25° C., pH 7.4
[10] = fluorescence anisotropy Kd values

Molecule | Kd [1] [µM] | Kd [2] [µM] | further results
B1 | 3.6 | 160 | binds K63-Ub2 more tightly than Rap80 with the wild-type linker ([1]; Table 2 Kd values): 6 fold
B2 | 10 | 129 ± 5 | –
B3 | 17 | 230 | –
B4 | 11 | 152 ± 6 | –
B5 | – | – | Ki ([1]; unlabeled peptide titrated against fluorescent Rap80 tUIM peptide at saturating K63-Ub2, read-out: Ki for the binding inhibition): 24 µM
B6 | 16 | 170 ± 5 | –
B7 | 67 | 211 | binding of K63-Ub4 versus K48-Ub4 ([3]; fluorescence anisotropy): indistinguishably; Kd [4, 8]: 29 µM; Kd [5, 8]: 31 µM
B8 | 60 | 160 | Kd [4, 9]: 11 µM; Kd [5, 9]: 7.8 µM
B9 | 17 | 140 | Kd [5, 9]: 9.3 µM
B10 | 2.2 | 98 | Kd [4, 9]: 0.62 µM; Kd [5, 9]: 6.5 µM
B11 | 150 | 170 | –
B12 | 21.6 ± 0.8 | – | preference for K63-Ub2 over monoUb [6, 10]: 24 fold; preference for K63-Ub2 over K48-Ub2 ([6]; from Kd values): 7 fold; bound K48-Ub4 tighter than K48-Ub2 [5, 10]: more than 11 times; α-helical content, K63-Ub2-bound form [7]: ~100%; α-helical content, unbound form [7]: 30%-35%
B13 | 87 | 160 | –
B14 | – | – | preference for K63-Ub4 over K48-Ub4 ([3]; solution fluorescence anisotropy): 7 fold
